The source of these data is patent US20220169677A1 (INSERM INSTITUT NATIONAL DE LA SANTE ET DE LA RECHERCHE …, published 2022).

Sequences and labels used below:
T1: recombinant human NRP-1 (human, UniProt O14786-2 22-644, limits assumed)
T1 construct: Coated on a 96-well plate at 200 ng/well; GenBank AAC51759.1 is printed only as the preferred definition of NRP-1; also called Neuropilin-1
T1 sequence (looked up): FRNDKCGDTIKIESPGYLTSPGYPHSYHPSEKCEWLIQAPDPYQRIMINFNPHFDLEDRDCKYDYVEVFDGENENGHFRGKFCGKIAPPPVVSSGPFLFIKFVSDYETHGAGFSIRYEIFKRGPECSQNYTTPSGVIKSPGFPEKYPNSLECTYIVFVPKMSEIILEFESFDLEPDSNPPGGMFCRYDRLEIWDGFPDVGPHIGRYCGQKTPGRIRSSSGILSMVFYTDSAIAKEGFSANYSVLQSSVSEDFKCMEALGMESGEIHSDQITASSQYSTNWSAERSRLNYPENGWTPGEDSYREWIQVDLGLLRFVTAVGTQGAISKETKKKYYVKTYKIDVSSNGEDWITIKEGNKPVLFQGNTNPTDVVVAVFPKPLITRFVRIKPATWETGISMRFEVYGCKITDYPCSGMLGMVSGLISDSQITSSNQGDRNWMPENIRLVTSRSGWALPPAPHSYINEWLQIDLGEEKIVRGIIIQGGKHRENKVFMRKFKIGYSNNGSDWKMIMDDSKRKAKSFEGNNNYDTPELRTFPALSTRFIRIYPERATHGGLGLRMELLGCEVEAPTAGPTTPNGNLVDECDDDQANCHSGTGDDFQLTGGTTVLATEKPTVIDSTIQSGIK

B1: KPRR (peptide derived from the VEGF-A165) (peptide)
peptide: KPRR
notes: Parent tetrapeptide without Cys; 5
B2: LPPR (active part of A7R) (peptide)
peptide: LPPR
notes: Parent tetrapeptide without Cys; 3
B3: H2N-Cys-Thr-Lys-Pro-Arg-OH (peptide)
peptide: H-CTKPR-OH
notes: TKPR (tuftsin) with an added N-terminal Cys; also called CTKPR
B4: H2N-Cys-Leu-Pro-Pro-Arg-OH (peptide)
peptide: H-CLPPR-OH
notes: LPPR (active part of A7R) with an added N-terminal Cys; also called CLPPR
B5: H2N-Cys-Lys-Pro-Arg-Arg-OH (peptide)
peptide: H-CKPRR-OH
notes: KPRR (peptide derived from the VEGF-A165 C-terminus) with an added N-terminal Cys; also called CKPRR

The first assay concerns the target T1, recombinant human NRP-1. The assay is described as follows: competition: inhibition of (bt)-VEGF-A165 binding to coated NRP-1.
B1: the 50% inhibitory concentration (IC50) (as a rule, the midpoint of a concentration-inhibition curve) was determined as 4500 nM.

Regarding B2, the IC50 amounted to 80000 nM.

For the next assay, the target named is T1, recombinant human NRP-1. As to the kind of experiment: chemiluminescence competition: inhibition of (bt)-VEGF-A165 binding to coated NRP-1. As for the experimental part: The flat bottom surface of a 96-well plate was coated with 100 μL (200 ng/well) recombinant human NRP-1 and incubated overnight at 4° C. Non-specific binding was blocked by the incubation with 0.5% BSA in PBS. 50 μL of peptide dissolved in PBS in range concentrations and 50 μL (400 ng/mL) of human (bt)-VEGF-A₁₆₅ in PBS containing 4 μg/mL of heparin were added respectively. After 2 h incubation at room temperature the plate was washed and treated with streptavidin-horseradish peroxidase conjugate in PBS (1:8000). Chemiluminescence was quantified immediately after addition of 100 μL Chemiluminescent substrate. In a positive control only (bt)-VEGF-A₁₆₅ was present in wells, while, in negative control, wells were not coated by NRP-1. Percentages of inhibition were calculated by the following formula: […]
In the case of “H-Cys-Lys(hArg)-Dab-Oic-Arg-OH (peptide)”, the IC50 was 50 nM and the fold decrease in IC50 against the sequence without cysteine turned out to be 100 fold.

With “H-Lys(Cys-hArg)-Dab-Oic-Arg-OH (peptide)”, the concentration for half-maximal inhibition (IC50) was 40 nM and the fold decrease in IC50 against the sequence without cysteine was 100 fold.

For the molecule “H-Cys-Lys(hArg)-Dab-ΔPro-Arg-OH (peptide)”, the 50% inhibitory concentration (IC50) was found to be 70 nM and the fold decrease in IC50 against the sequence without cysteine is 100 fold.

As to “H-Lys(Cys-hArg)-Dab-ΔPro-Arg-OH (peptide)”, the half-maximal inhibitory concentration (IC50) worked out at 60 nM and the fold decrease in IC50 against the sequence without cysteine came out at 100 fold.

With B3, the IC50 is 19000 nM.

On to B4, for which the IC50 is 17000 nM.

For B5, the 50% inhibitory concentration (IC50) was 100 nM.
